The source of these data is patent US20240352134A1.

Test [1] has as its target human CCR8 (human) (UniProt P51685). Description: cell-based or functional assay.
For test [2] the target is unchanged. Description: binding affinity EC50, comparison of Table 12 (FACS on CCR8-expressing cells).

Chain of human CCR8 (human) (P51685 whole entry): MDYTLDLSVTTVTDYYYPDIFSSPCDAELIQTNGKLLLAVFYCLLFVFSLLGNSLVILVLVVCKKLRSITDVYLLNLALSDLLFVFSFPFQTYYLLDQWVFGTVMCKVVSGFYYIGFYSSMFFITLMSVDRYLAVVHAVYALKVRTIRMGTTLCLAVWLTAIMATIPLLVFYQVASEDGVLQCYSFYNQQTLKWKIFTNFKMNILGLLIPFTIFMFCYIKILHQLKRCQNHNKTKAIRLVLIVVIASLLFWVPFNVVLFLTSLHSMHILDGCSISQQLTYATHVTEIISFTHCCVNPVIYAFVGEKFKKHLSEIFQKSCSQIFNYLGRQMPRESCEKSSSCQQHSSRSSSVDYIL

As usually defined, the EC50 is the midpoint of the concentration-response curve. The low end stands for higher potency in that assay, the high end for lower potency in that assay. Turning to GS-1811 (antibody), the Signal block Ca2+ with human CCR8 (human) [1] came to 4.34 nM. This substance gave an EC50 in the test with human CCR8 (human) [2] of 0.29 nM.

The substance S-531011 (antibody) gave an EC50 with human CCR8 (human) [2] of 0.243 nM.
